Test results: patent US12583888B2, “Bi-specific extracellular matrix binding peptides and methods of use thereof” (University of Tartu, priority 2019, dated 2026)

What was measured:
P13 tumor = settings: i.v. equimolar mix, 2 h circulation
Description: (§1) In vivo play-off was used to evaluate systemic homing of peptide phage to xenograft tumor models. The in vitro selected candidate TNC-C binding peptides, phages displaying published tumor homing peptides, and control peptides were amplified and purified by precipitation with PEG-8000 (Sigma-Aldrich, St. Louis, MO, USA), followed by CsCl2 gradient ultracentrifugation and dialysis. The amplified phage peptides were pooled in equimolar quantities, and injected intravenously (final 1×10^10 pfu in 200 μl PBS) in tumor-bearing mice for two hour circulation, after which mice were anesthetized with 2.5% avertin and intracardially perfused with DMEM intracardially. The tumors and organs were collected in lysogeny broth (LB)+1% NP40, and the tissues were homogenized using a hand-held homogenizer for phage peptide rescue. Phages in the tissue lysates were amplified in E. coli, purified by precipitation with PEG-8000 and DNA was extracted using a DNA extraction kit (High Pure PCR Template Preparation Kit; Roche, Basel, Switzerland). Next-generation sequencing of phage genomic DNA evaluated the representation of each phage in input mixture, in tumor and control organs with Ion Torrent system (Thermo Fisher Scientific, Waltham, MA, USA). The next generation deep sequencing of phage library was done using Ion Torrent according to the manufacturer's protocol with slight modification. The FASTQ data from Ion Torrent was processed by a custom python script that identified the barcodes, constant flanking residues, and extracted the reads of the correct length.

P3 stem cell-like tumor = settings: i.v. equimolar mix, 2 h circulation
Description: as §1

[1] = tested on: PC3 prostate carcinoma xenografts; settings: i.v. equimolar mix, 2 h circulation
Description: as §1

U87-MG glioblastoma = settings: i.v. equimolar mix, 2 h circulation
Description: as §1

WT-GBM tumor = settings: i.v. equimolar mix, 2 h circulation
Description: as §1

normal brain = settings: i.v. equimolar mix, 2 h circulation
Description: as §1

FN-EDB and TNC-C [2] = assay: Peptide-phage binding to FN-EDB- and TNC-C-coated magnetic beads; settings: phage-displayed peptide
Protocol: (§2) To identify bispecific peptides that interact with both TNC-C and FN-EDB, cross screens were performed on both targets. During the first round of selection, microtiter plates coated with 20 μg/ml recombinant purified TNC-C were blocked with PBS containing 1% bovine serum albumin (BSA), followed by incubation with 5×10^8 pfu of phages in PBS at 4° C. overnight, by washes to remove background, and by phage rescue and amplification in BLT5403 strain of E. coli (Novagen, EMD Biosciences, MA, USA) (Teesalu et al., Methods Enzymol. 503:35-56 (2012)). The following rounds of biopanning were carried on Ni-NTA Magnetic Agarose Beads (QIAGEN, Hilden, Germany) coated with hexahistidine-tagged FN-EDB (3 μg/μl beads) at room temperature. After 5 rounds of selection, a set of random clones was sequenced, and individual peptide-phage clones and control (G7 peptide-displaying or insertless) phages were incubated with FN-EDB and TNC-C-coated magnetic beads. RPARPAR phage (SEQ ID NO:5) and His-tagged NRP-1 b1b2 domain were used as positive control (Teesalu et al., Proc. Natl. Acad. Sci. U.S.A 106:16157-62 (2009)). To address the specificity of the peptide phage binding to the FN-EDB and TNC-C, the protein-coated beads were pre-incubated with 20 μg/ml blocking rabbit polyclonal antibodies.

NRP-1 b1b2 domain = target: T1, NRP-1 b1b2 domain (Homo sapiens, UniProt O14786); assay: PL1 phage binding to recombinant control protein NRP-1; settings: phage-displayed peptide
T1 construct: His-tagged NRP-1 b1b2 domain were used as positive control; His tag; made in house
T1 sequence (O14786 273-586 limits assumed): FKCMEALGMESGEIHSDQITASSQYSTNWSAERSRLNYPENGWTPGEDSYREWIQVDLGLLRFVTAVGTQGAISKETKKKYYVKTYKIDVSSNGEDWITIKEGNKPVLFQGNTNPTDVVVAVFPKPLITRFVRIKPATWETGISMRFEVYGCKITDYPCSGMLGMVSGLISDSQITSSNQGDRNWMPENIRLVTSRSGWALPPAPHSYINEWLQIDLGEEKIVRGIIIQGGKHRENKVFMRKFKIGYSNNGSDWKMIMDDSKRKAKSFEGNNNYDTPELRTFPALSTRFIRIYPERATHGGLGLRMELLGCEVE
Protocol: as §2

FN-EDB and TNC-C [3] = assay: Cell-free peptide binding assay (immobilized FAM-peptide, His-tagged protein, ELISA)
Protocol: The FAM-labeled peptides were coated on ELISA plates (Nunc Maxisorp, Thermo Fisher Scientific Inc., MA, USA), blocked with PBS containing 1% BSA, and incubated with recombinant proteins at 2 μg/well in PBS for 6 h. The protein was detected using an anti-His-tag antibody, followed by horseradish peroxidase-conjugated secondary antibody, chromogenic reaction, and measurement of absorbance at 450 nm with a microplate reader (Tecan Austria GmbH, Gradig, Austria).

[4] = tested on: Neuropilin 1 b1b2 domain (NRP1) and Fn-EDB; assay: PL2 phage binding to purified NRP1 together with Fn-EDB
Protocol: For cell-free binding studies using individually amplified phage clones; phage was incubated with Fn-EDB coated magnetic beads as described above. RPARPAR phage on NRP-1-coated beads was used as a positive control (Teesalu et al., 2009), Nucleolin (NCL) and Tenascin C-C domain (TNC-C) were used as negative control. Phage clones displaying heptaglycine peptide (GGGGGGG, G7 (SEQ ID NO:20)) or insert less phage clones were used as negative controls.

AGRGRLVRAKLAAALE
Representation of phage in tumors (fold G7 control phage), P13 (P13 tumor): 0.1 fold | Representation of phage in tumors (fold G7 control phage), P3 SCL (P3 stem cell-like tumor): 0.4 fold | Representation of phage in tumors (fold G7 control phage), PC3 [1]: 0.3 fold | Representation of phage in tumors (fold G7 control phage), U87-MG (U87-MG glioblastoma): 0.2 fold | Representation of phage in tumors (fold G7 control phage), WT-GBM (WT-GBM tumor): 23.9 fold | Representation of phage in control brain tissue (fold G7 control phage), Norm. brain (normal brain): 0.0 fold

AGVGRLRRAKLAAALE
Representation of phage in tumors (fold G7 control phage), P13 (P13 tumor): 0.9 fold | Representation of phage in tumors (fold G7 control phage), P3 SCL (P3 stem cell-like tumor): 0.9 fold | Representation of phage in tumors (fold G7 control phage), PC3 [1]: 1.4 fold | Representation of phage in tumors (fold G7 control phage), U87-MG (U87-MG glioblastoma): 1.0 fold | Representation of phage in tumors (fold G7 control phage), WT-GBM (WT-GBM tumor): 2.3 fold | Representation of phage in control brain tissue (fold G7 control phage), Norm. brain (normal brain): 0.2 fold

CAGRGRLVRC
Representation of phage in tumors (fold G7 control phage), P13 (P13 tumor): 0.4 fold | Representation of phage in tumors (fold G7 control phage), P3 SCL (P3 stem cell-like tumor): 0.2 fold | Representation of phage in tumors (fold G7 control phage), PC3 [1]: 0.4 fold | Representation of phage in tumors (fold G7 control phage), U87-MG (U87-MG glioblastoma): 0.1 fold | Representation of phage in tumors (fold G7 control phage), WT-GBM (WT-GBM tumor): 0.9 fold | Representation of phage in control brain tissue (fold G7 control phage), Norm. brain (normal brain): 0.0 fold

CRGVLRRAKLAAALE
Representation of phage in tumors (fold G7 control phage), P13 (P13 tumor): 0.4 fold | Representation of phage in tumors (fold G7 control phage), P3 SCL (P3 stem cell-like tumor): 0.4 fold | Representation of phage in tumors (fold G7 control phage), PC3 [1]: 0.9 fold | Representation of phage in tumors (fold G7 control phage), U87-MG (U87-MG glioblastoma): 0.7 fold | Representation of phage in tumors (fold G7 control phage), WT-GBM (WT-GBM tumor): 1.6 fold | Representation of phage in control brain tissue (fold G7 control phage), Norm. brain (normal brain): 0.1 fold

CSRRGILRAKPAAALE
Representation of phage in tumors (fold G7 control phage), P13 (P13 tumor): 0.8 fold | Representation of phage in tumors (fold G7 control phage), P3 SCL (P3 stem cell-like tumor): 0.9 fold | Representation of phage in tumors (fold G7 control phage), PC3 [1]: 1.2 fold | Representation of phage in tumors (fold G7 control phage), U87-MG (U87-MG glioblastoma): 1.1 fold | Representation of phage in tumors (fold G7 control phage), WT-GBM (WT-GBM tumor): 1.5 fold | Representation of phage in control brain tissue (fold G7 control phage), Norm. brain (normal brain): 0.1 fold

GGGGGGG [reference compound]
Representation of phage in tumors (fold G7 control phage), P13 (P13 tumor): 1.0 fold | Representation of phage in tumors (fold G7 control phage), P3 SCL (P3 stem cell-like tumor): 1.0 fold | Representation of phage in tumors (fold G7 control phage), PC3 [1]: 1.0 fold | Representation of phage in tumors (fold G7 control phage), U87-MG (U87-MG glioblastoma): 1.0 fold | Representation of phage in tumors (fold G7 control phage), WT-GBM (WT-GBM tumor): 1.0 fold | Representation of phage in control brain tissue (fold G7 control phage), Norm. brain (normal brain): 1 fold

GRLTRVR
Representation of phage in tumors (fold G7 control phage), P13 (P13 tumor): 0.5 fold | Representation of phage in tumors (fold G7 control phage), P3 SCL (P3 stem cell-like tumor): 0.5 fold | Representation of phage in tumors (fold G7 control phage), PC3 [1]: 0.9 fold | Representation of phage in tumors (fold G7 control phage), U87-MG (U87-MG glioblastoma): 0.9 fold | Representation of phage in tumors (fold G7 control phage), WT-GBM (WT-GBM tumor): 1.9 fold | Representation of phage in control brain tissue (fold G7 control phage), Norm. brain (normal brain): 0.1 fold

PPRRGLIKLKTS [PL1]
Binding Specificity (FN-EDB and TNC-C [2]): TNC-C + FN-EDB | interaction of phage with recombinant control protein NRP-1 (NRP-1 b1b2 domain): did not interact | binding to FN-EDB and TNC-C on phage and as synthetic FAM-labeled peptide (FN-EDB and TNC-C [3]): retained the ability to bind to both FN-EDB and TNC-C

PPRRGLIKLKTSSNTKENSVVASLRP [PL5]
Binding Specificity (FN-EDB and TNC-C [2]): TNC-C + FN-EDB

RGRLVRA
Representation of phage in tumors (fold G7 control phage), P13 (P13 tumor): 0.4 fold | Representation of phage in tumors (fold G7 control phage), P3 SCL (P3 stem cell-like tumor): 0.3 fold | Representation of phage in tumors (fold G7 control phage), PC3 [1]: 1.8 fold | Representation of phage in tumors (fold G7 control phage), U87-MG (U87-MG glioblastoma): 0.8 fold | Representation of phage in tumors (fold G7 control phage), WT-GBM (WT-GBM tumor): 3 fold | Representation of phage in control brain tissue (fold G7 control phage), Norm. brain (normal brain): 0.1 fold

RGRLVRAK
Representation of phage in tumors (fold G7 control phage), P13 (P13 tumor): 0.1 fold | Representation of phage in tumors (fold G7 control phage), P3 SCL (P3 stem cell-like tumor): 0.3 fold | Representation of phage in tumors (fold G7 control phage), PC3 [1]: 3.0 fold | Representation of phage in tumors (fold G7 control phage), U87-MG (U87-MG glioblastoma): 0.5 fold | Representation of phage in tumors (fold G7 control phage), WT-GBM (WT-GBM tumor): 23.8 fold | Representation of phage in control brain tissue (fold G7 control phage), Norm. brain (normal brain): 0.2 fold

RRLVRVA
Representation of phage in tumors (fold G7 control phage), P13 (P13 tumor): 0.4 fold | Representation of phage in tumors (fold G7 control phage), P3 SCL (P3 stem cell-like tumor): 0.3 fold | Representation of phage in tumors (fold G7 control phage), PC3 [1]: 0.9 fold | Representation of phage in tumors (fold G7 control phage), U87-MG (U87-MG glioblastoma): 0.6 fold | Representation of phage in tumors (fold G7 control phage), WT-GBM (WT-GBM tumor): 1.4 fold | Representation of phage in control brain tissue (fold G7 control phage), Norm. brain (normal brain): 0.1 fold

TSKQNSR [PL2]
binding of phage-displayed peptide to Fn-EDB and NRP1 [4]: bind specifically to both Fn-EDB and NRP1

VGRVRFSRKLAAALE
Representation of phage in tumors (fold G7 control phage), P13 (P13 tumor): 0.5 fold | Representation of phage in tumors (fold G7 control phage), P3 SCL (P3 stem cell-like tumor): 0.4 fold | Representation of phage in tumors (fold G7 control phage), PC3 [1]: 1.2 fold | Representation of phage in tumors (fold G7 control phage), U87-MG (U87-MG glioblastoma): 0.7 fold | Representation of phage in tumors (fold G7 control phage), WT-GBM (WT-GBM tumor): 2.5 fold | Representation of phage in control brain tissue (fold G7 control phage), Norm. brain (normal brain): 0.1 fold
